Measured values reported in the RNAGym collection of RNA variant scans (doi:10.1073/pnas.2313332121).
Fewer inactive variants are shown than the library holds.

B1: TPR 5TU (parent)
chain: GGAUCUUCUCGAUCUAACAAAAAAGACAAAUCUGCCACAAAGCUUGAGAGCAUCUUCGGAUGCAGAGGCGGCAGCCUUCGGUGGCGCGAUAGCGCCAACGUUCUCAACUAUGACACGCAAAACGCGUGCUCCGUUGAAUGGAGUUUAUCAUG

Variants of: B1
Assay: polymerase ribozyme fitness, log enrichment relative to wild type (log ratio); higher = more active; in vitro selection for triplet polymerase activity
In short: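 Streptavidin-bead capture of gel-excised extended constructs, followed by RT-PCR, closed a single triplicate in vitro selection round. That round began by annealing PCR-built, transcribed mutant libraries of each subunit of a heterodimeric triplet polymerase ribozyme with a biotinylated primer, the partner subunit and triplets, then incubating them frozen at −7 °C. After Illumina sequencing of inputs and outputs, genotypes needed ≥10 input reads and ≥1 read per output. Fitness is the base-2 logarithm of genotype enrichment over wild-type enrichment, using inverse-variance-weighted replicate averages.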

Variant	polymerase ribozyme fitness (log ratio)
C14G A28C A47G U53A G84U	≤ -4.2
C14A G50A C85G C96A	≤ -4.2
C14A A17G U31A G59A C75G C95U U101G A113U A121U	≤ -4.2
C14G C18U A22C A40C U53A C75A U77A G94C G117U A119G C149G	≤ -4.2
C14G C27G G58A G86U U127C	-4.16
C14A A40U C76U U78G G84A C103G G128A G141C	≤ -4.2
C14A G68U C76A C99U G100A	≤ -4.2
C14G G88U G140A	≤ -4.2
C14G G141A	-1.87
C14G C75A G84U	-4.14
C14U A19G G94A A106G C131G	≤ -4.2
C14G G83A	-2.42
C14G U15A C18U G25U C27G G62A C85G A138C	≤ -4.2
C14G A29U A30G C96U	≤ -4.2
C14G C36U U55G G68U C93G U134A	≤ -4.2
C14A G34A A40C U55G C87G C114G G117U A121C U139A	≤ -4.2
C14A A19U A21C A60G	-1.8
C14G G48C U146A	-4.06
C14A A17C C93U C116G	-2.99
U13G G48A C93A C125G	≤ -4.2
C14G U31A A40U U90G G92A A107G G112A G133U G141A	≤ -4.2
C14G A47C C54G U56A C93A C108U G124U G128A	≤ -4.2
C14G A24G A41U G67A G152A	≤ -4.2
C14A A37G C93U	-4.13

Variant	polymerase ribozyme fitness (log ratio)
C14A A16C U56G C57G A91C G136U	≤ -4.2
C14G U15A G68C G83A U111C	≤ -4.2
U13G C87G	≤ -4.2
C14G G94A A106C G136A	-3.64
C14G A47C	-2.35
C14A	-1.08
C14G	-2.09
C14U	-1.06
C14G A26G U56G A73U G143A	≤ -4.2
C14A G59A U82A G84U	-4.06
C14A A37U G50U G94U A106U	≤ -4.2
C14A A40G C43G G86U U135C G143C U148G	≤ -4.2
C14G C75U	-2.58
C14G A29G U33C A37U U111G G124U U134A	≤ -4.2
U13G U111G	≤ -4.2
U13G G25A G83A	-4.07
C14G G50C C51U C79U C85A C125A	≤ -4.2
C14A A17U A21G C54U A60G	-3.75
C14G U55A G92U	-2.92
C14A C87A A97U G143A	≤ -4.2
C14U A21C G67U U77A C85G C96U U127G	≤ -4.2
C14A G58U	-1.88
C14A G58C	-1.28
C14A G46C C75G C87A A89U U90G C96U U102G G140A	≤ -4.2

Variant	polymerase ribozyme fitness (log ratio)
C14A A20U C85A U109G	≤ -4.2
C14G U56A	-2.57
C14G A16U A39G G124A	≤ -4.2
C14A A20U A60G A66U C93G	≤ -4.2
C14A C38U G84U	-3
U13G U33G U56A A60U G143U	≤ -4.2
C14G C27G U55G G68A U82A G94C A107U A142G	≤ -4.2
U13G G86U	-3.56
C14G G83C G117U	-2.76
C14G C85G C103A	≤ -4.2
C14G G88U U102A	≤ -4.2
C14G A107G G136U	≤ -4.2
C14G G42U G46C G92C A119U G128A	≤ -4.2
C14A U15G A26U G86U G92U A107U U109A C116A	≤ -4.2
C14G A30C G50A C76U C87A A107G U111C A120U	≤ -4.2
C14G C35G U82G G92A C96A G100A C116G A120G G141A U144A	≤ -4.2
C14A A39G G42A U82C G88C	≤ -4.2
C14A G94U A107G	≤ -4.2
C14G A20C G92C C125G	-3.88
C14G A60U G86U	≤ -4.2
C14G U15C C18U A39U A49C G80C A110C	≤ -4.2
U13G G50U C93U	-3.9
C14G G48A A119G	-3.43
C14U A21G A24C A28U U53C C75U	≤ -4.2

Variant	polymerase ribozyme fitness (log ratio)
C14G A22G G25A A28C G50C G84U U104G	≤ -4.2
C14G U139G U144G	-1.38
C14U A20C A39G A52G U56A C96A A121U	-4
C14G A39U C57G	-4.06
C14G A20C C38U A147U	-2.09
C14G C54G G68C C85U C105A C114A A137U	≤ -4.2
C14G U61G	-3.62
C14G U61A	-3.55
U13G G59U C96U	-0.998
C14A U53A G94C	-3.67
C14G U55A G84A G141A	-3.7
C14G G58A	-2.24
C14G C35U G42C A52U C75A C79G G92C C118U G140C	-4.09
C14G C35A G42C A66G C96G G117U	≤ -4.2
C14G A39C C54G G71U C79G	≤ -4.2
C14G A22C A73U	-3.92
C14A C76G C87A A119G A138C U148A	≤ -4.2
C14G A52C G58A C96U C125G	-3.92
C14A U55A C75U A120U	-2.39
C14G C27A A37U C54U G67A G94U C105G	≤ -4.2
C14G U15G A24G G58C C87G C108A C114U G136A	≤ -4.2
C14G C93U	-3.66
C14G A37U G86U A89U A119U C132G	≤ -4.2
C14A G94A	-1.67

Variant	polymerase ribozyme fitness (log ratio)
C14A A21C A22C	-0.829
U13G C93G	-3.88
U13G G46A G83A U101A U134A U135C	≤ -4.2
C14G A17G G46C G81A C96G A120G	≤ -4.2
U13G U44A G124C U144G	≤ -4.2
C14G A39G A49U U56A G81U	≤ -4.2
C14A C27G	≤ -4.2
U13G U33G C54U	≤ -4.2
C14A A20U A21U U102G	≤ -4.2
C14G G94C	-2.23
C14G G94A	-2.61
U13G G42A U56G G86U G133C G143U U146C	≤ -4.2
C14A G34U G74C G84U G143A	≤ -4.2
C14G U82A U101G	-2.29
C14G A20U	-2.37
C14G G25C	≤ -4.2
C14A C85A C129U	-2.79
U13G U56A C57U C87A G88C A89U A121U C125A U148A	≤ -4.2
C14U A16U C27A A30G G42U C51U C93A	≤ -4.2
C14G A20C A40C A89C	-4.13
C14G G25A U55A U127C	≤ -4.2
C14A U82A G92A	≤ -4.2
C14G A24U A30U U44A C54A C87U G112U	-4.11
C14G A29G A60G G94C C99U C114U	≤ -4.2

Variant	polymerase ribozyme fitness (log ratio)
U13G U15A C51U C96A A121G	-2.76
C14G C72U	-3.04
C14A A73G G86A A98U	-3.58
C14G A24G U31A A49C A52C C54A U56A A73U A89G C99G A107C C149G	≤ -4.2
C14A U61G U111A A121C	≤ -4.2
C14G C38A A52C C57A G62A G83A A89C C96G A110C	-3.85
C14G U15G C54U G58U C87G C105U G143A	≤ -4.2
U13G U78G G86U G140A G141A	≤ -4.2
C14U A21C C27U C36A G62U G80C G86A A137C	-3.96
C14A A41C G94C	-2.95
C14G G83A G117U U127G	≤ -4.2
C14G C57A	-1.52
C14G C57U	-2.06
C14G G81A C87U A106C G140U	≤ -4.2
C14G A24C A49G G92C	≤ -4.2
C14G A52G G141C	-3.34
C14G A19G C54U C76G U82G A119G G128C U134C	≤ -4.2
C14G A66U C69A	≤ -4.2
C14G C85U C103U	-3.1
C14G A20U U55A C85A C105U U134A	≤ -4.2
C14U A21U G50C U56A A66C A91U G143C	≤ -4.2
C14G A40C G42C G48A G86U G92U C99A	≤ -4.2
C14U A21G C38G C57A C79U A138C U148C	≤ -4.2
C14A C116G	-0.826

Variant	polymerase ribozyme fitness (log ratio)
C14G A39G U53A C54U C93A	≤ -4.2
C14G G46U G48A A73U U77C	≤ -4.2
U13G G83C U145C	-3.39
U13G U31C A40G G58U U78C C85G C114U G141U	≤ -4.2
C14G U56A A73G U135C	-4.12
C14G U55A C96U	-3.27
C14U A22U A41U A120C	-3.1
C14G C38U C95G A106C	-4.14
C14G C36A A52G A66C C93U C125A	≤ -4.2
C14G A28U G50A A119C A147U	≤ -4.2
C14A U15A G50U A66G U101G C114U C118G G133A A137G	≤ -4.2
U13G G84U	-3.13
C14G A21G G34A A37C G50C C57G A60C A64G	≤ -4.2
C14A A19C G58U A89U	-2.28
C14G A24C A26U C36A A73G A107U A119U U144A	≤ -4.2
C14G A23U C54G G67U A142U U151A	≤ -4.2
C14A C69G C75A G92U G140U	≤ -4.2
U13G C96G A120G	-1.51
C14G A24C C35U C57A G84U A97U	≤ -4.2
C14G A20C G50U U53A G126U U139A	≤ -4.2
C14G U15A C54U C69A C99A U148A	≤ -4.2
C14A A16G U45A U55G U61A G65U G94C C96U U101G	≤ -4.2
C14A G48A A91U G100A U101C U134A	≤ -4.2
